Data taken from the RNAGym collection of RNA variant scans (doi:10.7554/elife.80360).

B1: HDV Ribozyme (parent)
chain: GGCCGGCAUGGUCCCAGCCUCCUCGCUGGCGCCGGCUGGGCAACAUUCCGAGGGGACCGUCCCCUCGGUAAUGGCGAAUGGGACCCA

Variants of: B1
Assay: self-cleavage, relative activity (ratio to wild type); higher = more cleavage; co-transcriptional

Variant	self-cleavage
G11C G81A	0
U12C A42G	0.0831
U12A G80C	0.0852
G11C G54A	0.277
G11C G54C	0.291
G11C G82U	0.104
G11C G82C	0.287
G11U C21G	0.086
U12A A51U	0.277
U12A A51C	0.237
U12A G40A	0.374
U12A G40C	0.219
U12A G40U	0.111
U12A C13G	0
U12A C13A	0.0378
G11U G68U	0.17
G11U G68A	0.205
G11U G68C	0.297
U12A C36A	0.0992
U12A C36G	0.0707
G11C C33G	0.0396
G11C C33U	0.256
G11C C33A	0.0346
U12A G52C	0.453

Variant	self-cleavage
U12C C15G	0.147
U12C C15A	0.482
U12C C15U	0.147
U12A C48A	0.244
U12A C48U	0.277
U12A C58U	0.302
G11U G53U	0.385
G11U G53C	0.284
G11U U79A	0.148
G11U U79G	0.231
G11U A16C	0.38
G11U A83C	0.119
U12A C26G	0.609
G11U G25A	0
G11U G25C	0.104
G11U U27C	0.388
G11U A43G	0.0339
G11U A43C	0.0594
G11U C24A	0.112
U12A C21U	0.0831
U12A C21G	0.237
U12A C86A	0.623
U12C A78U	0
U12C A78C	0.162

Variant	self-cleavage
G11U G31C	0.146
U12A A16U	0.32
U12A A16G	0.383
U12A G74A	0.128
U12A G74C	0.135
G11C C75G	0.133
G11C C75A	0.0536
G11U G73U	0.111
U12C C14G	0.229
U12C C14A	0.18
U12C C14U	0.277
U12A U79C	0.166
U12A U79G	0.302
G11C C58U	0.242
G11C C58A	0.378
G11C U37G	0.101
G11U U69G	0.309
G11U U69C	0.161
G11U U69A	0.317
U12A C22A	0
U12A C22U	0.0426
G11U C22A	0.0179
G11U C22G	0
G11U C22U	0.103

Variant	self-cleavage
G11C G80A	0.136
U12A C30G	0.131
U12A C30A	0.0652
G11C C85A	1.18
G11C C85U	0.266
G11U C14A	0.0707
G11U G38U	0.0961
U12A U20C	0
U12A U20A	0.101
U12A U20G	0
U12A A71C	0.262
U12A A71G	0
U12A A71U	0.262
U12A A45C	0
U12A A45G	0.277
U12A A45U	0
U12A G31A	0.125
U12A G31U	0.0811
U12A U65A	0.431
G11U U60G	0.381
G11U G50U	0.583
G11U A71U	0.158
G11U A71G	0.302
G11U A70U	0.228

Variant	self-cleavage
G11U A70G	0.201
G11U G55C	0.35
G11U G55A	0.463
G11U G55U	0.436
U12A U23C	0.237
G11C U20A	0.0978
G11C U20G	0
U12A U72G	0.185
G11C G40A	0.208
G11C G40C	0.0475
U12A A78G	0.237
U12A A78C	0.123
U12A G53A	0.403
U12A G53C	0.475
U12A G76U	0.906
U12A G76A	0.499
U12A G76C	0.443
G11U U37C	0.208
U12A U60C	0.391
U12A U60A	0.453
U12A C18U	0.217
U12A C18A	0.0604
G11C G76C	0.628
G11C G76U	0.604

Variant	self-cleavage
G11C G76A	0.312
U12A G38U	0.0277
G11U G54C	0.57
G11U G54A	0.313
G11U A87U	0.199
U12C A77C	0.237
G11C G59U	0.35
G11C G59C	0.415
G11C U23A	0.465
G11C U69A	0.166
G11U A42G	0.0386
G11U A42C	0.0308
G11C U46A	0.115
G11C U46C	0.123
U12A C85U	0.481
U12A C85A	0.383
U12A C85G	0.208
U12A C24U	0.135
U12A C24G	0.0437
G11U C32A	0.0545
G11C G74C	0
G11C G74U	0.0963
U12A G67U	0.256
U12A G67A	0.383

Variant	self-cleavage
G11U G40A	0.387
G11U U23G	0.134
G11C C49A	0.388
G11U G52A	0.375
G11U G52C	0.218
G11C C66U	0.289
G11C U65A	0.293
G11C U65G	0
U12C A56G	0.623
G11U C49U	0.386
G11U C49G	0.166
G11C G31C	0.0791
G11C G31U	0.0482
U12A C14U	0.332
G11U G74A	0.114
G11U G74C	0.0845
G11U C30A	0.128
G11C G38C	0.0755
G11U C84A	1.12
G11U C84U	0.292
G11U C61A	0.355
G11U C61G	0.315
G11U C61U	0.443
